Experimental data: article PMC10907714

Molecular target: human EGFR-WT (human) (UniProt P00533)

- potency of hEpiregulin against hEGF for recruitment of the seven SH2 biosensors to the plasma membrane (ebBRET, Fig. 2a), HEK293 cells with EGFR-WT, 10 min (fold less potent than hEGF): > 100
Substance: human recombinant Epiregulin (from UniProt O14944 63-108) (ligand)
